± gives the uncertainty stated by the source.
Assay: self-splicing fitness, log relative to wild type (ln ratio); higher = more splicing; Tetrahymena group I intron in knt gene, E. coli kanamycin selection, DiMSum; sequences stand for … in CUCUCU…GGAGGGAAAAGUUAUCAGGCAUGCACCUGGUAGCUAGUCUUUAAACCAAUAGAUUGCAUCGGUUUAAAAGGCAAGACCGUCAAAUUGCGGGAAAGGGGUCAACAGCCGUUCAGUACCAAGUCUCAGGGGAAACUUUGAGAUGGCCUUGCAAAGGGUAUGGUAAUAAGCUGACGGACAUGGUCCUAACCACGCAGCCAAGUCCUAAGUCAACAGAUCUUCUGUUGAUAUGGAUGCAGUUCACAGACUAAAUGUCGGUCGGGGAAGAUGUAUUCUUCUCAUAAGAUAUAGUCGGACCUCUCCUUAAUGGGAGCUAGCGGAUGAAGUGAUGCAACACUGGAGCCGCUGGGAACUAAUUUGUAUGCGAAAGUAUAUUGAUUAGUUUUGGAGUACUCGUGGUCG
Method in brief: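 The eight P1ex-region nucleotides of an intron in the knt kanamycin-resistance gene on pET-22b(+) were all randomised and the library put into E. coli BL21(DE3). Six replicate transformations were grown overnight at 37°C or 30°C on LB agar with or without 25 μg/mL kanamycin, together with 100 μg/mL carbenicillin, 50 μM IPTG and 0.2% rhamnose. Colonies were pooled and amplicon-sequenced on an Illumina HiSeq 2500. Fitness from DiMSum is the error-weighted combination of wild-type-normalised replicate fold changes, kanamycin over none.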

Sequence | self-splicing fitness (ln) (30 °C) | self-splicing fitness (ln) (37 °C)
CGAAAGCAAUAUUACGGCCC | -1.42 ± 0.19 | -0.196 ± 0.35
AGGCAGCAAUAUUACGCGAG | -2.49 ± 0.13 | -1.12 ± 0.13
AUAAAGCAAUAUUACGUUCA | 0.0367 ± 0.069 | 0.0639 ± 0.1
UGGUAGCAAUAUUACGAUUU | -1.14 ± 0.14 | -0.866 ± 0.14
GCUAAGCAAUAUUACGUUGC | -2.26 ± 0.46 | -1.71 ± 0.38
UCCUAGCAAUAUUACGAAUG |  | -2.76 ± 0.44
UCUCAGCAAUAUUACGUGUG | -2.33 ± 0.098 | -2.27 ± 0.11
GCCCAGCAAUAUUACGCUUU | 0.177 ± 0.056 | 0.242 ± 0.074
AUCCAGCAAUAUUACGCGGA | -3.7 ± 0.25 | -2.5 ± 0.17
CGAUAGCAAUAUUACGGCUC | -2.44 ± 0.14 | -1.15 ± 0.17
UUUUAGCAAUAUUACGCUAC |  | -2.79 ± 0.31
CGCUAGCAAUAUUACGCCAU | -3.62 ± 0.3 | -1.27 ± 0.27
AUAUAGCAAUAUUACGAAAA | -2.4 ± 0.41 | -1.72 ± 0.34
UCAUAGCAAUAUUACGCUCG | -0.651 ± 0.15 | -0.277 ± 0.17
ACGCAGCAAUAUUACGUUCU | -1.1 ± 0.082 | -0.958 ± 0.09
CCGAAGCAAUAUUACGGCAC | -4.15 ± 0.31 | -2.37 ± 0.33
GGCAAGCAAUAUUACGUCCA | -1.83 ± 0.22 | -0.175 ± 0.18
UAUCAGCAAUAUUACGAGAU | -3.27 ± 0.16 | -2.21 ± 0.23
GCAAAGCAAUAUUACGGUCU | -1.38 ± 0.087 | 0.608 ± 0.1
CCCAAGCAAUAUUACGCUAC | -4.17 ± 0.39 | -3.04 ± 0.38
GAAUAGCAAUAUUACGGUUA | -0.656 ± 0.11 | -0.631 ± 0.091
AAAUAGCAAUAUUACGGAUA | -2.19 ± 0.2 | -1.1 ± 0.16
CGGGAGCAAUAUUACGCUGG | -4.21 ± 0.42 | -2 ± 0.3
AAAGAGCAAUAUUACGGGAA | -2.67 ± 0.32 | -2.16 ± 0.28
AUUAAGCAAUAUUACGGCAU | -0.722 ± 0.076 | -0.458 ± 0.094
GAGUAGCAAUAUUACGCUGA |  | -1.55 ± 0.39

Sequence | self-splicing fitness (ln) (30 °C) | self-splicing fitness (ln) (37 °C)
GAUUAGCAAUAUUACGACAG | -3.57 ± 0.29 | -1.1 ± 0.23
CGGGAGCAAUAUUACGACCA | -1.08 ± 0.31 | 
UGAAAGCAAUAUUACGGACU | 0.219 ± 0.079 | 0.125 ± 0.094
UACUAGCAAUAUUACGCUCA | -0.532 ± 0.095 | 0.288 ± 0.13
ACUAAGCAAUAUUACGCGUC | -4.43 ± 0.41 | -2.1 ± 0.22
GAGAAGCAAUAUUACGACAG | -2.31 ± 0.19 | -3.09 ± 0.4
CAUUAGCAAUAUUACGACCU | -1.77 ± 0.45 | -1.77 ± 0.47
AACCAGCAAUAUUACGGAUC | -2.84 ± 0.11 | -1.48 ± 0.1
GCAAAGCAAUAUUACGUUGU | -3.71 ± 0.15 | -2.99 ± 0.15
UAACAGCAAUAUUACGCAUC | -4.63 ± 0.22 | -2.51 ± 0.17
UUGAAGCAAUAUUACGCACA | -0.575 ± 0.11 | 0.157 ± 0.13
UCCCAGCAAUAUUACGGGAG | -3.44 ± 0.14 | -2.01 ± 0.11
AUUUAGCAAUAUUACGGAUA | -2.18 ± 0.27 | -1.53 ± 0.27
GUCGAGCAAUAUUACGGUUC | -2.27 ± 0.14 | -1.73 ± 0.17
CUAGAGCAAUAUUACGAAGA | -3.61 ± 0.28 | -1.94 ± 0.43
GGCGAGCAAUAUUACGUCUU | -0.851 ± 0.047 | -0.197 ± 0.06
GGUCAGCAAUAUUACGGCGG | -0.828 ± 0.049 | -0.274 ± 0.065
UUGAAGCAAUAUUACGUGAC | -3.1 ± 0.3 | -1.29 ± 0.24
CAUGAGCAAUAUUACGCCGC | -3.56 ± 0.2 | -2.71 ± 0.22
AACAAGCAAUAUUACGCUGC | -3.38 ± 0.3 | -2.45 ± 0.28
AGCAAGCAAUAUUACGUGAU | -2.1 ± 0.072 | -1.32 ± 0.08
GUUCAGCAAUAUUACGAUAA | -0.196 ± 0.084 | 0.169 ± 0.097
AGCGAGCAAUAUUACGUUAC | -3.84 ± 0.21 | -2.26 ± 0.23
CACCAGCAAUAUUACGCGAG | -0.893 ± 0.057 | -0.594 ± 0.063
CAGCAGCAAUAUUACGUUCG | -0.171 ± 0.056 | 0.0532 ± 0.076
CUCGAGCAAUAUUACGUGAG | -2.41 ± 0.17 | -2.32 ± 0.23

Sequence | self-splicing fitness (ln) (30 °C) | self-splicing fitness (ln) (37 °C)
UAUCAGCAAUAUUACGGACC | -2.13 ± 0.13 | -1.39 ± 0.15
ACACAGCAAUAUUACGUGCA | -0.241 ± 0.051 | -0.395 ± 0.063
GACAAGCAAUAUUACGCCUG | -1.3 ± 0.093 | -0.0185 ± 0.1
UGUGAGCAAUAUUACGAUCG | -1.36 ± 0.1 | 0.456 ± 0.17
UAUGAGCAAUAUUACGAUGA | -1.41 ± 0.12 | -1.68 ± 0.16
AUCCAGCAAUAUUACGGAGC | -3.09 ± 0.21 | -2.2 ± 0.24
UAUGAGCAAUAUUACGCACA | -0.923 ± 0.21 | -0.282 ± 0.21
AACAAGCAAUAUUACGUAUC | -4.08 ± 0.15 | -2.01 ± 0.11
CACCAGCAAUAUUACGGGCU | -4.86 ± 0.2 | -2.8 ± 0.16
GGGAAGCAAUAUUACGCCCG |  | 0.0331 ± 0.36
GAGGAGCAAUAUUACGCGGA | -3.27 ± 0.4 | -2.76 ± 0.41
UGCUAGCAAUAUUACGAGCA |  | -2.39 ± 0.39
GCAAAGCAAUAUUACGGAAA | -1.88 ± 0.18 | -1.66 ± 0.19
CGUCAGCAAUAUUACGUAAC | -3.29 ± 0.35 | -2.29 ± 0.26
CUUCAGCAAUAUUACGUCGG | -1.85 ± 0.15 | -1.79 ± 0.24
GUGAAGCAAUAUUACGCAGG | -1.88 ± 0.1 | -0.654 ± 0.1
CAAAAGCAAUAUUACGACUG | -0.738 ± 0.068 | 0.168 ± 0.099
CGAAAGCAAUAUUACGGAUU | -3.5 ± 0.2 | -2.63 ± 0.19
GCUAAGCAAUAUUACGAGGG | -2.18 ± 0.14 | -1.64 ± 0.16
CAUCAGCAAUAUUACGGAGG | -1.24 ± 0.12 | -0.916 ± 0.14
ACGGAGCAAUAUUACGUGUU | -3.23 ± 0.13 | -2.56 ± 0.16
AUGCAGCAAUAUUACGUCUA | -0.692 ± 0.12 | 0.148 ± 0.1
GCAUAGCAAUAUUACGGCAA | -1.49 ± 0.18 | -0.271 ± 0.17
AAGGAGCAAUAUUACGAGGG | -2.76 ± 0.24 | -2.93 ± 0.3
GGGGAGCAAUAUUACGUUAA | -2.53 ± 0.4 | -1.95 ± 0.35

Reference: the supplement of paper PMC7877785
